Assay results from patent US20180185467A1 (Harvard, published 2018).

Tests used:
endogenous 14-3-3ε = endogenous 14-3-3ε (UniProt P62258)
[1] = molecular target: T1, GST-NS3 of HCV (strain Con1) (Hepatitis C virus, strain Con1, UniProt Q9WMX2 1027-1657); experiment: GST pull-down in 293T cells, immunoblot with anti-14-3-3ε
T1 construct: domain: NS3; also called HCV NS3; NS3 of Hepatitis C virus

endogenous RIG-I = molecular target: T2, endogenous RIG-I (human, UniProt O95786 1-925); experiment: Co-IP with anti-RIG-I from SeV-infected cells, immunoblot with anti-14-3-3ε
T2 construct: also called retinoic acid-inducible gene-I
T2 sequence: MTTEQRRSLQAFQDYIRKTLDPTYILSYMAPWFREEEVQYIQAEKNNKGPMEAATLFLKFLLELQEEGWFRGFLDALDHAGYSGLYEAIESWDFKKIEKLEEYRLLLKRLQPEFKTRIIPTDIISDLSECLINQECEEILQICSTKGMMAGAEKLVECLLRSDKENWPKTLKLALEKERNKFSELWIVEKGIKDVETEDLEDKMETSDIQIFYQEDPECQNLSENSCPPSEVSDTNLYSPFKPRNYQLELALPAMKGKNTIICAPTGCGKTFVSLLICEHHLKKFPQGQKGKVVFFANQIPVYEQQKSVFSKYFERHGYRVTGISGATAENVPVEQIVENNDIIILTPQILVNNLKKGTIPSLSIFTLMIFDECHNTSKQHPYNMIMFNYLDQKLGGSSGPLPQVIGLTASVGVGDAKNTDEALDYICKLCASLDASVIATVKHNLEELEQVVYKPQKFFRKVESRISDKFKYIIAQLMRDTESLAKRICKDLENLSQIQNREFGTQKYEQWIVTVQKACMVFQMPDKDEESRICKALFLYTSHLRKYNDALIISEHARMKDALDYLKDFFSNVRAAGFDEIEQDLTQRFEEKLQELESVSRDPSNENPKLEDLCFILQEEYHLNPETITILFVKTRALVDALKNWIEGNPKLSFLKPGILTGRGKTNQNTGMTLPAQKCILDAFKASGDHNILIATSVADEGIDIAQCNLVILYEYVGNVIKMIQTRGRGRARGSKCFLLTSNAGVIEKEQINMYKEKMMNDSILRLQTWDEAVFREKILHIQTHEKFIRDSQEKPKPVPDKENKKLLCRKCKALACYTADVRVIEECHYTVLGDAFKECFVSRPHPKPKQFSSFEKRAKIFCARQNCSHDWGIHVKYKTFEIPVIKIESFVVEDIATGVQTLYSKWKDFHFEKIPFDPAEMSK

[2] = molecular target: T3, FLAG-NS5-MTase (NS5 methyltransferase domain, aa 1-319) (dengue virus serotype 2, strain NGC, UniProt P14340 2492-2810); experiment: FLAG affinity purification from HEK293T cells and mass spectrometry
T3 construct: domain: NS5 methyltransferase (aa 1-319); also called pEF-BOS-FLAG-NS5-MTase; not shown: FLAG tag

RIG-I-FLAG = molecular target: T4, RIG-I-FLAG (UniProt O95786 1-925); experiment: in vitro binding assay on anti-FLAG beads, immunoblot
T4 construct: also called purified RIG-I-FLAG
T4 sequence: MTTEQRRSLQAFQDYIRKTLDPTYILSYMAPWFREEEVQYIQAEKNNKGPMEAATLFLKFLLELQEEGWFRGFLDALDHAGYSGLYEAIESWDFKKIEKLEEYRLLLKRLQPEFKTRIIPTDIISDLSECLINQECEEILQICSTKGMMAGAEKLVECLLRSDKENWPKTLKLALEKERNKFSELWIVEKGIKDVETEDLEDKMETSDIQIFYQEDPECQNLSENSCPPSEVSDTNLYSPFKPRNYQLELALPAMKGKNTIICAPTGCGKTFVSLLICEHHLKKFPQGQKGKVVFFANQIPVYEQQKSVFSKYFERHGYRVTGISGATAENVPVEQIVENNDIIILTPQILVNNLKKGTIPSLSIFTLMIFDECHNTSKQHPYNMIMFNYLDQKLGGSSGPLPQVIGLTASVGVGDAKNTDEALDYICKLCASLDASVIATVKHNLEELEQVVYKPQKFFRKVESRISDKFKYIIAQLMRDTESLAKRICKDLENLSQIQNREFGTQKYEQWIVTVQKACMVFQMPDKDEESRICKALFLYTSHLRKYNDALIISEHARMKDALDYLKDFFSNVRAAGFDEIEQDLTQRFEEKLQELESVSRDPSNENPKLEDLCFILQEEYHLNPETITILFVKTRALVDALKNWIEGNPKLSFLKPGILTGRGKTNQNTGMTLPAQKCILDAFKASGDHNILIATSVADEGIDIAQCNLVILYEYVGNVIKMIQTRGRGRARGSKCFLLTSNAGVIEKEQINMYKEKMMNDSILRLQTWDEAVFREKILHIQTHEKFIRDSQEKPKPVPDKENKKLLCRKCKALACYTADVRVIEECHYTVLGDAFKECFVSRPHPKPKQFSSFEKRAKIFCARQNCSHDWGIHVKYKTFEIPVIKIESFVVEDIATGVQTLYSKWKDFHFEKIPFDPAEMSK

T1 sequence (Q9WMX2 1027-1657): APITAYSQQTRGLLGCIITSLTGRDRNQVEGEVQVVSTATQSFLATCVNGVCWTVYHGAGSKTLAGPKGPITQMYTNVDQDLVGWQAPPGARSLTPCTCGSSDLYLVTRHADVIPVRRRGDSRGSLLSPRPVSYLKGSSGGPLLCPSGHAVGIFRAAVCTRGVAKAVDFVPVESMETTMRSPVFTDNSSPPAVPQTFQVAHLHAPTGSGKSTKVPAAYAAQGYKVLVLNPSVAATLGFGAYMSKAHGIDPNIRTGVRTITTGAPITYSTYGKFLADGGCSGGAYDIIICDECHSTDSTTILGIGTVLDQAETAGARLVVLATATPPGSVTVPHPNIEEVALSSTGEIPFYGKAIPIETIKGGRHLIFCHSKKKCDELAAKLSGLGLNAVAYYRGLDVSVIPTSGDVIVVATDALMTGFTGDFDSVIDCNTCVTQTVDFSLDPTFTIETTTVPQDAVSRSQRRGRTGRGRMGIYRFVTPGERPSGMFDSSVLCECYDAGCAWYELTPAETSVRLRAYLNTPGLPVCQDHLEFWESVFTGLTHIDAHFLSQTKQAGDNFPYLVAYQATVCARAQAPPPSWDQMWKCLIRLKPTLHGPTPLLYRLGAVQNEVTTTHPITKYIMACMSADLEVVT

## NS3 of DV2 NGC in infected Huh7 cells
Endogenous 14-3-3ε
  translocation of RIG-I to the MAVS-containing mitochondrial fraction (fractionation, immunoblot): RIG-I failed to translocate to the MAVS-containing mitochondrial fraction during DV infection

B1: endogenous 14-3-3ε (other)
chain: MDDREDLVYQAKLAEQAERYDEMVESMKKVAGMDVELTVEERNLLSVAYKNVIGARRASWRIISSIEQKEENKGGEDKLKMIREYRQMVETELKLICCDILDVLDKHLIPAANTGESKVFYYKMKGDYHRYLAEFATGNDRKEAAENSLVAYKAASDIAMTELPPTHPIRLGLALNFSVFYYEILNSPDRACRLAKAAFDDAIAELDTLSEESYKDSTLIMQLLRDNLTLWTSDMQGDGEEQNKEALQDVEDENQ
[1]
  binding result: no binding
Endogenous RIG-I
  binding result: binds
[2]
  binding result: no binding

B2: bacterially-purified recombinant human 14-3-3ε protein (NP_006752.1) (other)
chain: MDDREDLVYQAKLAEQAERYDEMVESMKKVAGMDVELTVEERNLLSVAYKNVIGARRASWRIISSIEQKEENKGGEDKLKMIREYRQMVETELKLICCDILDVLDKHLIPAANTGESKVFYYKMKGDYHRYLAEFATGNDRKEAAENSLVAYKAASDIAMTELPPTHPIRLGLALNFSVFYYEILNSPDRACRLAKAAFDDAIAELDTLSEESYKDSTLIMQLLRDNLTLWTSDMQGDGEEQNKEALQDVEDENQ
notes: also called recombinant (r) 14-3-3ε; r14-3-3ε
RIG-I-FLAG
  binding result: binds
